Variants at the floor of the assay were thinned out.
Assays:
[1] = test system: biotinyl-Leu-oxazolone; assay: self-aminoacylation, catalytic enhancement (BLO) (fold over background); higher = more active; k-Seq, kA / k0A0; sequences stand for … in GGGAAUGGAUCCACAUCUACGAAUUC…UUCACUGCAGACUUGACGAAGCUG
Procedure, shortened: (§1)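 Catalytic enhancement equals the median kA over the uncatalyzed rate, the latter read from the low-activity peak of a bimodal Gaussian fit. Values of kA came from fitting each sequence's fraction reacted to a pseudo-first-order model, with 1000 bootstraps. Reacted RNA was captured with streptavidin and quantified by triplicate qPCR and Illumina sequencing after 90 minutes at room temperature with 2–1250 μM biotinyl-aminoacyl-oxazolone and 0.43 μM mutagenized RNA pools bearing a 21-nt variable region.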

[2] = test system: biotinyl-Ile-oxazolone; assay: self-aminoacylation, catalytic enhancement (BIO) (fold over background); higher = more active; k-Seq, kA / k0A0; sequences stand for … in GGGAAUGGAUCCACAUCUACGAAUUC…UUCACUGCAGACUUGACGAAGCUG
Procedure, shortened: as §1

[3] = test system: biotinyl-Val-oxazolone; assay: self-aminoacylation, catalytic enhancement (BVO) (fold over background); higher = more active; k-Seq, kA / k0A0; sequences stand for … in GGGAAUGGAUCCACAUCUACGAAUUC…UUCACUGCAGACUUGACGAAGCUG
Procedure, shortened: as §1

[4] = test system: biotinyl-Met-oxazolone; assay: self-aminoacylation, catalytic enhancement (BMO) (fold over background); higher = more active; k-Seq, kA / k0A0; sequences stand for … in GGGAAUGGAUCCACAUCUACGAAUUC…UUCACUGCAGACUUGACGAAGCUG
Procedure, shortened: as §1

[5] = test system: biotinyl-Trp-oxazolone; assay: self-aminoacylation, catalytic enhancement (BWO) (fold over background); higher = more active; k-Seq, kA / k0A0; sequences stand for … in GGGAAUGGAUCCACAUCUACGAAUUC…UUCACUGCAGACUUGACGAAGCUG
Procedure, shortened: as §1

[6] = test system: biotinyl-Phe-oxazolone; assay: self-aminoacylation, catalytic enhancement (BFO) (fold over background); higher = more active; k-Seq, kA / k0A0; sequences stand for … in GGGAAUGGAUCCACAUCUACGAAUUC…UUCACUGCAGACUUGACGAAGCUG
Procedure, shortened: as §1

| Sequence | self-aminoacylation [1] | self-aminoacylation [2] | self-aminoacylation [3] | self-aminoacylation [4] | self-aminoacylation [5] | self-aminoacylation [6] |
| --- | --- | --- | --- | --- | --- | --- |
| AUUACGCUGGUCAUCGAGAGA [Fam2.1 aminoacylation ribozyme variant] | 1.42 | 1.21 | 1.73 | 1.44 | 1.59 | 1.36 |
| CCUCAAUUCAAGCAAUCGGUC [Fam1B.1 aminoacylation ribozyme variant] | 1.04 | 1.07 | 0.943 | 0.916 | 3.57 | 6.19 |
| CUACUUCUAACAAUGGGUCUG [Fam1A.1 aminoacylation ribozyme variant] | 0.697 | 0.833 | 0.705 | 0.718 | 0.566 | 0.582 |
| AUUCAACUAGGUCAACGGGUG [Fam2.2 aminoacylation ribozyme variant] | 4.91 | 2.4 | 2.31 | 4.31 | 3.38 | 25.5 |
| AACUUCGCUAAUAGUCGCAAG [Fam3.1 aminoacylation ribozyme variant] | 3.44 | 2.98 | 3.03 | 3.5 | 3.06 | 14.5 |
| AUUCACCUAGUUGAUCGGGUG [Fam2.2 aminoacylation ribozyme variant] | 4.3 | 2.5 | 2.79 | 3.66 | 4.26 | 23.9 |
| AUUACCCUGGUCAUCGAGUAU [Fam2.1 aminoacylation ribozyme variant] | 23.6 | 8 | 9.24 | 26.9 | 24.4 | 97.7 |
| CUACUUAAACCAAUCGGUCUG [Fam1A.1 aminoacylation ribozyme variant] | 0.594 | 0.88 | 0.67 | 0.693 | 0.473 | 0.538 |
| AUUCACCAAGGUCGUCGGGUG [Fam2.2 aminoacylation ribozyme variant] | 3.05 | 2.09 | 2.58 | 2.2 | 2.29 | 12.9 |
| CCAAACUUCAAGCAAUUGGUC [Fam1B.1 aminoacylation ribozyme variant] | 0.767 | 0.759 | 0.828 | 0.81 | 0.886 | 1.1 |
| AUUCACCUAGGUCAUCGGGGG [Fam2.2 aminoacylation ribozyme variant] | 9.91 | 4.62 | 4.28 | 6.96 | 5.49 | 32.6 |
| AAGUUCGCUAAUAGUGGCAAG [Fam3.1 aminoacylation ribozyme variant] | 0.8 | 0.737 | 0.56 | 0.601 | 0.444 | 0.484 |
